± gives the standard deviation of the averaged measurements.
Experiment: total protein half-life in vivo (active degradation + dilution); higher = more stable protein
[1] = E. coli NCM3722 delta-clpP delta-lon delta-hslV, growth: N-lim chemostat, doubling time 6 h
[2] = E. coli NCM3722 delta-clpP, growth: N-lim chemostat, doubling time 6 h
[3] = E. coli NCM3722 delta-hslV, growth: N-lim chemostat, doubling time 6 h
[4] = E. coli NCM3722 delta-lon, growth: N-lim chemostat, doubling time 6 h
[5] = E. coli NCM3722 delta-smpB, growth: N-lim chemostat, doubling time 6 h
[6] = wild type E. coli NCM3722, growth: C-lim chemostat, doubling time 3 h
[7] = wild type E. coli NCM3722, growth: C-lim chemostat, doubling time 6 h
[8] = wild type E. coli NCM3722, growth: C-lim chemostat, doubling time 12 h
[9] = wild type E. coli NCM3722, growth: N-lim chemostat, doubling time 6 h
[10] = wild type E. coli NCM3722, growth: N-lim chemostat, doubling time 12 h
[11] = wild type E. coli NCM3722, growth: P-lim chemostat, doubling time 6 h
[12] = wild type E. coli NCM3722, growth: P-lim chemostat, doubling time 12 h

Sequence: MLKFILRRCLEAIPTLFILITISFFMMRLAPGSPFTGERTLPPEVMANIEAKYHLNDPIMTQYFSYLKQLAHGDFGPSFKYKDYSVNDLVASSFPVSAKLGAAAFFLAVILGVSAGVIAALKQNTKWDYTVMGLAMTGVVIPSFVVAPLLVMIFAIILHWLPGGGWNGGALKFMILPMVALSLAYIASIARITRGSMIEVLHSNFIRTARAKGLPMRRIILRHALKPALLPVLSYMGPAFVGIITGSMVIETIYGLPGIGQLFVNGALNRDYSLVLSLTILVGALTILFNAIVDVLYAVIDPKIRY [P0AFH2]
- total protein half-life in vivo [1]: 6.19 ± 0.36 h
- total protein half-life in vivo [2]: 6.06 ± 0.43 h
- total protein half-life in vivo [3]: 6.31 ± 0.27 h
- total protein half-life in vivo [4]: 4.86 ± 1.2 h
- total protein half-life in vivo [5]: 5.88 ± 0.32 h
- total protein half-life in vivo [6]: 2.81 ± 0.28 h
- total protein half-life in vivo [7]: 5.75 ± 0.39 h
- total protein half-life in vivo [8]: 13.4 ± 3.6 h
- total protein half-life in vivo [9]: 4.92 ± 1.4 h
- total protein half-life in vivo [10]: 13.5 h
- total protein half-life in vivo [11]: 5.69 ± 1.4 h
- total protein half-life in vivo [12]: 9.81 ± 1.4 h

Sequence: MLKFIQNNREITALLAVVLLFVLPGFLDRQYLSVQTLTMVYSSAQILILLAMGATLVMLTRNIDVSVGSITGMCAVLLGMLLNAGYSLPVACVATLLLGLLAGFFNGVLVAWLKIPAIVATLGTLGLYRGIMLLWTGGKWIEGLPAELKQLSAPLLLGVSAIGWLTIILVAFMAWLLAKTAFGRSFYATGDNLQGARQLGVRTEAIRIVAFSLNGCMAALAGIVFASQIGFIPNQTGTGLEMKAIAACVLGGISLLGGSGAIIGAVLGAWFLTQIDSVLVLLRIPAWWNDFIAGLVLLAVLVFDGRLRCALERNLRRQKYARFMTPPPSVKPASSGKKREAA
- total protein half-life in vivo [6]: 3.42 h
- total protein half-life in vivo [7]: 5.06 ± 1.6 h
- total protein half-life in vivo [8]: 7.51 ± 1.3 h

Sequence: MLKIIRAGMYTTVQDGGRHGFRQSGISHCGALDMPALRIANLLVGNDANAPALEITLGQLTVEFETDGWFALTGAGCEARLDDNAVWTGWRLPMKAGQRLTLKRPQHGMRSYLAVAGGIDVPPVMGSCSTDLKVGIGGLEGRLLKDGDRLPIGKSKRDSMEAQGVKQLLWGNRIRALPGPEYHEFDRASQDAFWRSPWQLSSQSNRMGYRLQGQILKRTTDRELLSHGLLPGVVQVPHNGQPIVLMNDAQTTGGYPRIACIIEADMYHLAQIPLGQPIHFVQCSLEEALKARQDQQRYFEQLAWRLHNEN
- total protein half-life in vivo [1]: 5.37 ± 0.055 h
- total protein half-life in vivo [2]: 5.3 ± 0.29 h
- total protein half-life in vivo [3]: 5.076 ± 0.012 h
- total protein half-life in vivo [4]: 5.07 ± 0.35 h
- total protein half-life in vivo [5]: 4.88 ± 0.36 h
- total protein half-life in vivo [6]: 3.12 ± 0.1 h
- total protein half-life in vivo [7]: 5.73 ± 0.14 h
- total protein half-life in vivo [8]: 10.1 ± 0.82 h
- total protein half-life in vivo [9]: 5.25 ± 0.34 h
- total protein half-life in vivo [10]: 8.94 ± 0.26 h
- total protein half-life in vivo [11]: 5.79 ± 0.12 h
- total protein half-life in vivo [12]: 11.26 ± 0.079 h

Sequence: MLKLFSAFRKNKIWDFNGGIHPPEMKTQSNGTPLRQVPLAQRFVIPLKQHIGAEGELCVSVGDKVLRGQPLTRGRGKMLPVHAPTSGTVTAIAPHSTAHPSALAELSVIIDADGEDCWIPRDGWADYRTRSREELIERIHQFGVAGLGGAGFPTGVKLQGGGDKIETLIINAAECEPYITADDRLMQDCAAQVVEGIRILAHILQPREILIGIEDNKPQAISMLRAVLADSNDISLRVIPTKYPSGGAKQLTYILTGKQVPHGGRSSDIGVLMQNVGTAYAVKRAVIDGEPITERVVTLTGEAIARPGNVWARLGTPVRHLLNDAGFCPSADQMVIMGGPLMGFTLPWLDVPVVKITNCLLAPSANELGEPQEEQSCIRCSACADACPADLLPQQLYWFSKGQQHDKATTHNIADCIECGACAWVCPSNIPLVQYFRQEKAEIAAIRQEEKRAAEAKARFEARQARLEREKAARLERHKSAAVQPAAKDKDAIAAALARVKEKQAQATQPIVIKAGERPDNSAIIAAREARKAQARAKQAELQQTNDAATVADPRKTAVEAAIARAKARKLEQQQANAEPEQQVDPRKAAVEAAIARAKARKLEQQQANAEPEEQVDPRKAAVEAAIARAKARKLEQQQANAEPEQQVDPRKAAVEAAIARAKARKREQQPANAEPEEQVDPRKAAVEAAIARAKARKLEQQQANAVPEEQVDPRKAAVAAAIARAQAKKAAQQKVVNED
- total protein half-life in vivo [1]: 5.65 ± 0.73 h
- total protein half-life in vivo [2]: 2.67 ± 0.51 h
- total protein half-life in vivo [4]: > 8 h
- total protein half-life in vivo [5]: 1.01 ± 0.033 h
- total protein half-life in vivo [6]: 1.3 ± 0.13 h
- total protein half-life in vivo [7]: 1.31 ± 0.069 h
- total protein half-life in vivo [8]: 1.76 h
- total protein half-life in vivo [9]: 1.16 h
- total protein half-life in vivo [11]: 1.8 ± 0.14 h
- total protein half-life in vivo [12]: 2.72 ± 0.58 h

Sequence: MLKQVEIFTDGSCLGNPGPGGYGAILRYRGREKTFSAGYTRTTNNRMELMAAIVALEALKEHCEVILSTDSQYVRQGITQWIHNWKKRGWKTADKKPVKNVDLWQRLDAALGQHQIKWEWVKGHAGHPENERCDELARAAAMNPTLEDTGYQVEV [P0A7Y4]
- total protein half-life in vivo [2]: 6.46 ± 0.89 h
- total protein half-life in vivo [7]: 5.92 ± 0.082 h
- total protein half-life in vivo [8]: 9.26 h
- total protein half-life in vivo [9]: 4.7 ± 0.96 h
- total protein half-life in vivo [11]: 6.5 ± 0.82 h

Sequence: MLKRCLSPLTLVNQVALIVLLSTAIGLAGMAVSGWLVQGVQGSAHAINKAGSLRMQSYRLLAAVPLSEKDKPLIKEMEQTAFSAELTRAAERDGQLAQLQGLQDYWRNELIPALMRAQNRETVSADVSQFVAGLDQLVSGFDRTTEMRIETVVLVHRVMAVFMALLLVFTIIWLRARLLQPWRQLLAMASAVSHRDFTQRANISGRNEMAMLGTALNNMSAELAESYAVLEQRVQEKTAGLEHKNQILSFLWQANRRLHSRAPLCERLSPVLNGLQNLTLLRDIELRVYDTDDEENHQEFTCQPDMTCDDKGCQLCPRGVLPVGDRGTTLKWRLADSHTQYGILLATLPQGRHLSHDQQQLVDTLVEQLTATLALDRHQERQQQLIVMEERATIARELHDSIAQSLSCMKMQVSCLQMQGDALPESSRELLSQIRNELNASWAQLRELLTTFRLQLTEPGLRPALEASCEEYSAKFGFPVKLDYQLPPRLVPSHQAIHLLQIAREALSNALKHSQASEVVVTVAQNDNQVKLTVQDNGCGVPENAIRSNHYGMIIMRDRAQSLRGDCRVRRRESGGTEVVVTFIPEKTFTDVQGDTHE [P0AFA2]
- total protein half-life in vivo [1]: 6.01 ± 0.078 h
- total protein half-life in vivo [2]: 6.25 ± 0.066 h
- total protein half-life in vivo [4]: 5.32 ± 0.25 h
- total protein half-life in vivo [5]: 5.44 ± 0.34 h
- total protein half-life in vivo [6]: 3.11 ± 0.058 h
- total protein half-life in vivo [7]: 5.44 ± 0.39 h
- total protein half-life in vivo [8]: 10.9 ± 0.31 h
- total protein half-life in vivo [9]: 5.65 ± 0.069 h
- total protein half-life in vivo [10]: 11.1 ± 0.78 h
- total protein half-life in vivo [11]: 6.05 ± 0.12 h
- total protein half-life in vivo [12]: 11 ± 1.5 h

Source: the supplement of paper PMC11246515
